Experiment [1] has as its target T1, mCherry-H2B without HA tag (mCh-H2B) (UniProt P06899 1-126). The experiment can be described thus: nuclear to cytoplasmic fluorescence ratio of FB-GFP in living U2OS cells lacking the HA tag.
Experiment [2] addresses T2, mitoNEET (Mito) fused to mCherry and a C-terminal smHA tag (Mito-mCh-smHA) (Homo sapiens (Human), UniProt Q9NZ45 1-33).
T2 construct: also called smHA tagged Mito
T2 peptide: YPYDVPDYA
The experiment can be described thus: live-cell imaging, U2OS cells; reference Mito-mCh-1×HA.

For experiment [3], the target named is T2, mitoNEET (Mito) fused to mCherry and a …. The experiment can be described thus: live-cell imaging, U2OS cells, FB-GFP fluorescence at mitochondria over background.
The target of experiment [4] is T1, mCherry-H2B without HA tag (mCh-H2B). The experiment can be described thus: nuclear to cytoplasmic fluorescence ratio of the GFP-fused scFv in living U2OS cells with mCh-H2B lacking the HA tag.
The target of a further experiment is T3, H2B-mCh-TrunTag.
T3 construct: not shown: Histone H2B, mCherry and the linkers between the parts
T3 peptide: LPGRWKPKM
The experiment can be described thus: live-cell fluorescence imaging of U2OS cells co-expressing the GFP-fused scFv and H2B-mCh-TrunTag; co-localization in the nucleus.

Another experiment concerns the target T4, H2B-mCh-OrigTag.
T4 construct: not shown: Histone H2B, mCherry and the linkers between the parts
T4 peptide: MSLPGRWKPKM
The experiment can be described thus: live-cell fluorescence imaging of U2OS cells co-expressing the GFP-fused scFv and H2B-mCh-OrigTag; co-localization in the nucleus.

Numbering of substitutions follows the chain as printed.

B1: χ15F11^HA chimeric anti-HA scFv fused to mEGFP (HA frankenbody, FB-GFP), expressed in cells (scFv, not shown: large carriers)
scFv: MAEVKLVESGGGLVKPGGSLKLSCAASGFTFSSYGMSWVRQTPEKRLEWVATISRGGSYTYYPDSVKGRFTISRDNAKNTLYLQMSSLRSEDTAIYYCARRETYDEKGFAYWGQGTTLTVSSGGGGSGGGGSGGGGSDIVLTQSPASLTVSLGQRATISCKSSQSLLNSGNQKNYLTWYQQKPGQPPKLLIYWASTRESGIPARFSGSGSGTDFTLNIHPVEEEDAATYYCQNDNSHPLTFGAGTKLEIGGGGSGGGGSGGGGSGGGGSGGGGS
notes: also called 15F11-HA-FB; pCMV-15F11-HA-mEGFP
On to B1, for which the binding result in experiment [1] is reported as “no binding”. In addition, the “Mito/Bg ratio of smHA tagged Mito against 1×HA tagged Mito” value in experiment [2] was found to be 4.7 times. Besides, the “mitochondria to background fluorescent intensity ratio (Mito/Bg)” value in experiment [3] is 16.6 ratio.

B2: χ2E2^HA chimeric anti-HA scFv fused to mEGFP (scFv, not shown: large carriers)
scFv: B1 scFv with K5Q, G12D, E44D, R89K, I95M, T117S, L118V, T149A, A243G
notes: also called 2E2-HA-FB; pCMV-2E2-HA-mEGFP
Regarding B2, the binding result in experiment [4] was “no binding”.

B3: χ15F11^HIV chimeric anti-HIV protease scFv fused to GFP (scFv)
scFv: MAEVKLVESGGGLVKPGGSLKLSCAASGFTFSRFGMHWVRQTPEKRLEWVAYISSGSSTIYYADTVKGRFTISRDNAKNTLYLQMSSLRSEDTAIYYCARSGGIERYDGTYYVMDYWGQGTTLTVSSGGGGSGGGGSGGGGSDIVLTQSPASLTVSLGQRATISCRASESVDYYGKSFMNWYQQKPGQPPKLLIYAASNQGSGIPARFSGSGSGTDFTLNIHPVEEEDAATYYCQQSKEVPWTFGAGTKLEI
notes: also called 15F11-HIV-FB; anti-HIV protease frankenbody
For the molecule B3, the binding result with H2B-mCh-TrunTag and with H2B-mCh-OrigTag was “binds” throughout.

Values taken from patent US20200102373A1 (COLORADO STATE UNIVERSITY RESEARCH FOUNDATION, published 2020).
